The target of one data set is T1, OP (Artificial) (UniProt Q9XDM8).
T1 sequence: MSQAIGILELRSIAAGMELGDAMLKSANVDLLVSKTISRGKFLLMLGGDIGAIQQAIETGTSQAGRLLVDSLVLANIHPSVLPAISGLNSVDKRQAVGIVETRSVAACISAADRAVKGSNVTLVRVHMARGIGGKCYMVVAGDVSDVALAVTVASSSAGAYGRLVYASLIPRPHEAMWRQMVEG
The settings on record: fluorescence quenching kinetics koff/kon.

The next data set concerns the target T2, OTR501 (Artificial) (UniProt Q9XDM8).
T2 sequence: T1 sequence with R39P
As to conditions: fluorescence quenching kinetics koff/kon.

For another data set, the target named is T3, OTR502 (Artificial) (UniProt Q9XDM8).
T3 sequence: T1 sequence with R103W
The settings on record: fluorescence quenching kinetics koff/kon.

For the next data set, the target named is T4, OTR503 (Artificial) (UniProt Q9XDM8).
T4 sequence: T1 sequence with R163L
The settings on record: fluorescence quenching kinetics koff/kon.

Data set [1] addresses T5, OP (Artificial, UniProt Q9XDM8 SEQ:1-184).
T5 chain: T1 sequence
Kind of data set: EMSA; 2:1 ssDNA to capsid. The settings on record: tags: C-terminal His6; chain copies: 24 (self-assembled cage). In general terms: Mobility shift assays separate free from complexed probe on a gel.

Data set [2] has as its target T6, O3-33 (Artificial, UniProt Q9XDM8 SEQ:1-184, R11T,R39P,R66E,R103W,R130F,R163L).
T6 sequence: T1 sequence with R11T, R39P, R66E, R103W, R130F, R163L
Kind of data set: EMSA; 2 equiv. O3-33. As to conditions: tags: C-terminal His6, pET29b(+)-O3-33 (David Baker), PDB 3VCD, chain copies: 24 (self-assembled cage).

Data set [3] has as its target T5, OP. Kind of data set: EMSA; PBS, room temp; near complete binding at 0.5 equiv. cage, 1.98 guests per cage by SEC. As to conditions: tags: C-terminal His6; chain copies: 24 (self-assembled cage).
The target in the next data set is T7, OTR101 (Artificial, UniProt Q9XDM8 SEQ:1-184).
T7 chain: T1 sequence with R11T, R66E, R103W, R130F, R163L
Nature of the data set: EMSA; also no binding by fluorescence quenching. As to conditions: tags: C-terminal His6; chain copies: 24 (inferred); label: Atto488 5'.

The target in the next data set is T8, OTR203 (Artificial, UniProt Q9XDM8 SEQ:1-184).
T8 chain: T1 sequence with R66E, R103W, R130F, R163L
Nature of the data set: EMSA; also no binding by fluorescence quenching. The settings on record: tags: C-terminal His6; chain copies: 24 (inferred); label: Atto488 5'.

The next data set addresses T9, OTR202 (Artificial, UniProt Q9XDM8 SEQ:1-184).
T9 chain: T1 sequence with R39P, R66E, R130F, R163L
Kind of data set: EMSA; also no binding by fluorescence quenching. The settings on record: tags: C-terminal His6; chain copies: 24 (inferred); label: Atto488 5'.

In a further data set the target is T10, OTR201 (Artificial, UniProt Q9XDM8 SEQ:1-184).
T10 chain: T1 sequence with R11T, R66E, R103W, R163L
Kind of data set: EMSA; also no binding by fluorescence quenching. As to conditions: tags: C-terminal His6; chain copies: 24 (inferred); label: Atto488 5'.

The target in another data set is T11, OTR502 (Artificial, UniProt Q9XDM8 SEQ:1-184).
T11 chain: T1 sequence with R103W
Nature of the data set: fluorescence quenching kinetics koff/kon, PBS, room temp. As to conditions: tags: C-terminal His6; chain copies: 24 (inferred); label: Atto488 5'.

For a further data set, the target named is T12, OTR402 (Artificial, UniProt Q9XDM8 SEQ:1-184).
T12 chain: T1 sequence with R39P, R130F
Described as above. As to conditions: tags: C-terminal His6; chain copies: 24 (inferred); label: Atto488 5'.

For another data set, the target named is T13, OTR302 (Artificial, UniProt Q9XDM8 SEQ:1-184).
T13 chain: T1 sequence with R66E, R103W, R163L
The description is as above. The settings on record: tags: C-terminal His tag; chain copies: 24 (inferred); label: Atto488 5'.

In another data set the target is T14, OTR501 (Artificial, UniProt Q9XDM8 SEQ:1-184).
T14 chain: T1 sequence with R39P
The description is as above. As to conditions: tags: C-terminal His6; chain copies: 24 (inferred); label: Atto488 5'.

A further data set concerns the target T15, OTR301 (Artificial, UniProt Q9XDM8 SEQ:1-184).
T15 chain: T1 sequence with R11T, R39P, R66E
Described as above. As to conditions: tags: C-terminal His6; chain copies: 24 (inferred); label: Atto488 5'.

Another data set addresses T16, OTR401 (Artificial, UniProt Q9XDM8 SEQ:1-184).
T16 chain: T1 sequence with R66E, R163L
The description is as above. As to conditions: tags: C-terminal His6; chain copies: 24 (inferred); label: Atto488 5'.

Another data set has as its target T17, OTR503 (Artificial, UniProt Q9XDM8 SEQ:1-184).
T17 chain: T1 sequence with R163L
The description is as above. The settings on record: tags: C-terminal His6; chain copies: 24 (inferred); label: Atto488 5'.

Data set [4] deals with T6, O3-33. Kind of data set: EMSA; PBS, room temp; also no binding by fluorescence quenching. The settings on record: tags: C-terminal His6; pET29b(+)-O3-33 (David Baker), PDB 3VCD; chain copies: 24 (self-assembled cage); label: Atto488 5'.
Data set [5] addresses T5, OP. Nature of the data set: fluorescence quenching kinetics koff/kon, PBS, room temp; p321 gives (2.4±0.3)e-10. As to conditions: tags: C-terminal His6; chain copies: 24 (self-assembled cage); label: Atto488 5'.
The target of data set [6] is T5, OP. Nature of the data set: EMSA; 1:1 complex in PBS; released over 6 h by 26 uM tRNA at 37 C. The settings on record: tags: C-terminal His6; chain copies: 24 (self-assembled cage); label: Atto488 5'.
A further data set has as its target T18, OP-NoHis6 (Artificial, UniProt Q9XDM8 SEQ:1-188).
T18 chain: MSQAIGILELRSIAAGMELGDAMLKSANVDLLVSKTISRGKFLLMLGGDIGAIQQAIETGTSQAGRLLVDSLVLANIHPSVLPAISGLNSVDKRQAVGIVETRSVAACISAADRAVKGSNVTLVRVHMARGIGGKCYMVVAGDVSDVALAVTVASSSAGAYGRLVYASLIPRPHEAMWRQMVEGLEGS
Nature of the data set: EMSA; 1:1 molar ratio; siRNA encapsulation also by SEC. As to conditions: tags: no His6 (GS C-terminus); chain copies: 24 (self-assembled cage, inferred); siRNA duplex with 2-nt 3' DNA overhangs.

Data set [7] has as its target T5, OP. Kind of data set: EMSA; PBS, room temp; near complete binding at 0.5 equiv. cage, 1.97 guests per cage by SEC. As to conditions: tags: C-terminal His6; chain copies: 24 (self-assembled cage); siRNA duplex with 2-nt 3' DNA overhangs.

Where a chain is given by its changes, count along the chain named.

14 molecules from US20210163540, “POLYPEPTIDES SELF-ASSEMBLING INTO NANOPARTICLES” (ETH ZÜRICH, published 2021) can be followed below.

As usually defined, the Kd is a measure of binding affinity in units of concentration. A high value points to a looser complex.

For hpDNA (Atto488-hairpin DNA), the Kd with OP (Artificial) came to 1.21 nM; with OTR501 (Artificial), 0.39 nM; with OTR502 (Artificial), 0.684 nM; with OTR503 (Artificial) it was 0.184 nM.

Take GGTTTCAATCGCCTGCTGAATCGC (ssDNA) [ssDNA7]: the binding result in the data set with OP [1] is “binds”.

GCGATTCAGCAGGCGATTGAAACC (ssDNA) [ssDNA5]: the binding result in the data set with OP [1] was “binds”.

B1: dsDNA (GFP-g/GFP-p) (dsDNA)
DNA 1: GAACTTCAGGGTCAGCTTGGG
DNA 2: CAAGCTGACCCTGAAGTTCTT
With B1, the binding result was “no binding” with O3-33 [2] and “binds” with OP [3].

In the case of CGATTAGCGGTCTGAATAGCGTGG (ssDNA) [ssDNA6], the binding result in the data set with OP [1] was “binds”.

In the case of CCTGGTGCGTGTGCACATGG (ssDNA) [ssDNA2], the binding result in the data set with OP [1] is “binds”.

For CGTGGCGAGCAGCAGCGC (ssDNA) [ssDNA1], in the data set with OP [1], the binding result was “binds”.

GGTGATGCGATGCTGAAAAGCGC (ssDNA) [ssDNA4]: the binding result with OP [1] is “binds”.

TTAATTAAAGACTTCAAGCGG (ssDNA) [Atto488-ssDNA (A488-DNA)]: the binding result in the data set with OTR101, with OTR203, with OTR202, in the data set with OTR201 and with O3-33 [4] was “no binding” each time. Further, the Kd in the data set with OTR502 came to 0.289 nM; with OTR402, 0.248 nM; in the data set with OTR302, 8.59 nM; in the data set with OTR501 it was 0.13 nM; with OTR301, 2.12 nM; in the data set with OTR401, 16.1 nM. Also, the values for the Kd with OTR503 and with OP [5] were 0.609 nM and 0.242 nM, respectively.

B2: Atto488-dsDNA (A488-DNA/A488-DNA') (dsDNA)
DNA 1: TTAATTAAAGACTTCAAGCGG
DNA 2: GCTTGAAGTCTTTAATTAATT
In the case of B2, the binding result with OP [6] was “binds”.

As for GTGCTCGAGACCTTCCACCATC (ssDNA) [ssDNA3], the binding result with OP [1] is reported as “binds”.

Turning to CCACGCTATTCAGACCGCTAATCG (ssDNA) [ssDNA8], the binding result with OP [1] was “binds”.

For GAAGGAGATATACATATGAGCCAGGC (ssDNA) [ssDNA9], the binding result with OP [1] is “binds”.

B3: dsRNA (GFP-siRNA-g/GFP-siRNA-p) (dsRNA)
RNA 1: GAACUUCAGGGUCAGCUUGGG
RNA 2: CAAGCUGACCCUGAAGUUCUU
modifications: last two 3' nucleotides deoxy on each strand
With B3, the binding result in the data set with O3-33 [2] (siRNA duplex with 2-nt 3' DNA overhangs) is recorded as “no binding”; with OP-NoHis6, “binds”; in the data set with OP [7], “binds”.
